{
  "source": "patent US20120263675A1",
  "about": "(REGENTS OF THE UNIVERSITY OF MICHIGAN, published 2012)",
  "binders": {"B1": {"name": "SM5F, fluorescently tagged mutated Smac peptide (AbuRPFK-Fam) (peptide)", "peptide": "[Abu]RPFK(5FAM)", "notes": "Mutated Smac N-terminal peptide used as tracer in the FP assays; also called fluorescent tracer"}},
  "key": {"[1]": {"molecular_target": "T1, Human XIAP BIR3-only (residues 241-356) with N-terminal 6x His tag (human, UniProt P98170 241-356)", "T1 construct": "range 241-356; Recombinant, produced in E. coli BL21(DE3); also called XIAP BIR3 protein; not shown: N-terminal 6x His tag from pET28 vector", "T1 sequence (P98170 241-356)": "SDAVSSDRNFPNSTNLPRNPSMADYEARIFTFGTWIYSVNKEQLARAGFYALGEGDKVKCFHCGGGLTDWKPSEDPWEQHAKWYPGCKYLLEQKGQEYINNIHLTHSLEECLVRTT", "experiment": "fluorescence polarization, tracer binding to XIAP BIR3", "text": "The FP-based assay for XIAP BIR3 protein was described in detail previously (Nikolovska-Coleska et al., Anal. Biochem. 332:261-73 (2004)). Briefly, 5-carboxyfluorescein was coupled to the lysine side chain of a mutated Smac peptide with the sequence (AbuRPFK-Fam) and this fluorescently tagged peptide (named SM5F) was used as the fluorescent tracer in FP-based binding assay to XIAP BIR3."}, "[2]": {"molecular_target": "T2, Human cIAP2 BIR3-only (residues 238-349) (human, UniProt Q13489 238-349)", "T2 construct": "range 238-349; Cloned into pHis-TEV vector, produced and purified as for XIAP BIR3; also called cIAP-2 BIR3 protein; not shown: tag from pHis-TEV vector", "T2 sequence (Q13489 238-349)": "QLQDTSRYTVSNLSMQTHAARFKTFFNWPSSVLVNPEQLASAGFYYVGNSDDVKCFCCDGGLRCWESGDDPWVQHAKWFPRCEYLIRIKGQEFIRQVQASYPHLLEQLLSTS", "experiment": "fluorescence polarization, tracer binding to cIAP-2 BIR3"}, "[3]": {"molecular_target": "T3, Human cIAP-1 BIR3-only (residues 253-363) (human, UniProt Q13490 253-363)", "T3 construct": "range 253-363; Cloned into pHis-TEV vector, produced and purified as for XIAP BIR3; also called cIAP-1 BIR3 protein; not shown: tag from pHis-TEV vector", "T3 sequence (Q13490 253-363)": "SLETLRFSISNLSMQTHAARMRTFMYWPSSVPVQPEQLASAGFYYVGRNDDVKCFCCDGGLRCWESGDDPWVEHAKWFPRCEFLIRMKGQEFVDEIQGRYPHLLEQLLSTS", "experiment": "fluorescence polarization, tracer binding to cIAP-1 BIR3"}},
  "note": "Square brackets hold non-standard residues; d marks the D form. Ends that are not written are not given here. * marks the point of attachment. 5FAM = O=C1OC2(c3ccc(O)cc3Oc3cc(O)ccc32)c2ccc(C(=O)*)cc21; Abu = CC[C@H](N)C(=O)O",
  "data": [
    {"binder": "B1", "values": [
      {"measurement": "Kd", "setting": "[1]", "value": 17.9, "unit": "nM"},
      {"measurement": "Kd", "setting": "[2]", "value": 6.6, "unit": "nM"},
      {"measurement": "Kd", "setting": "[3]", "value": 4.1, "unit": "nM"}
    ]}
  ]
}
